Test results published in the DeepSol protein solubility set.

Experiment: soluble on expression in E. coli; label from the status in PepcDB or PDB records
In the case of “MTSAPMSNPSSTSSVVTAAMLAIGDELLSGRTKDKNIGHLADVLTMSGIDLKEVRIVADEEESIVEALNALRSRYDYVFTSGGIGPTHDDITADAISAAFGLPCEHDAEALRLLGDMYRVREMEFTEARKRMARMPKGAAHIANPVSVAPGFVIGNVYVMAGVPQVFQAMLDNVMPTLRTGAKVMSQAVRSPYGEGDIGTPLTAIQKAHPETSIGSYPKYDGQRFSTEIVVRARDAGLLKAATEAVAAMIEAIGQEKQLAASKGDATA”, the “soluble on expression in E. coli” value is reported as “not soluble”.
For “MKKVLLIVISILFGSVLVGCQMNESNKTQDKIQSITGSVAYRERIALPDNAVVTVYLQDVSLADAPATVIAKQNFITNGMQVPLEFNLAYDSRKIKASHRYSVSARIEVDGKLRFITDTHYGVITDPEATKHVPMMLIGVHGE”, the “soluble on expression in E. coli” value was “not soluble”.
In the case of “MSDLSAQLSAFKNKIKSGPSVIVPRKATFTQSPSSPLSSSTTTTTSKNDANVKKRSTTDSVTRVLKKQKANMGEMTGSHLSTQLHLAVEYIKEHDQPISVEKLQNYLSFDISHTLLPLLNEIDRVKYDESKGTLEYVSLHNIRSSDDLLEFLRRQTTFKGTSVKELKDGWAGCVAAIDELESQGKILVLRNKKENAPRLVWANNGGELGYIDTEFKDMWDQVKLPEPDVLYQKLLDQGLKPTGADPNLIKKQPQQKEKKQKKARRGKITNTHMKGILKDYSQLV”, the “soluble on expression in E. coli” value is reported as “soluble”.
In the case of “MEKLLIEGGRALNGTIRVSGAKNSAVALIPATILADTPVTIGGVPNISDVKMLGDLLEEIGGRVTYGQEEEMVVDPSNMVAMPLPNGKVKKLRASYYLMGAMLGRFKKAVIGLPGGCHLGPRPIDQHIKGFEALGAHVTNEQGAIYLRADELRGARIYLDVVSVGATINIMLAAVRAKGRTVIENAAKEPEIIDVATLLTSMGARIKGAGTDVIRIDGVDSLHGCHHTIIPDRIEAGTYMILGAASGGEVTVDNVIPQHLESVTAKLREAGVQVETNDDQITVNGDRRLKVVDIKTLVYPGFPTDLQQPFTTLLTKAHGTGVVTDTIYGARFKHIDELRRMNAQIKVEGRSAIVTGPVLLQGAKVKASDLRAGAALVIAGLMADGITEVTGLEHIDRGYENIVDKLKGLGANIWREQMTKQEIEEMKNA”, the “soluble on expression in E. coli” value is reported as “not soluble”.
For “VVELPKTDEGLGFNIMGGKEQNSPIYISRVIPGGVADRHGGLKRGDQLLSVNGVSVEGEQHEKAVELLKAAQGSVKLVVR”, the “soluble on expression in E. coli” value was “soluble”.
For “MCRLAILALFSVAMVSVYGQDTPPPFLRNATPDQLKSFQQMIQSNGHLTETAMGAKIQEWVDQQGGKVAADWKDFQEFIKGQQGKSEAAHQTAISSFSPEAKKADAELTAISNDASLSIKAKGDKIQAYLTTLPANVKAELEKAQGQ”, the “soluble on expression in E. coli” value was “not soluble”.
In the case of “SSESKQDEDSGTSASLSKASKETSCKRQNREGSWDSSLVMKKPKQNQVSTVTDSEVALVSAYLEQRRVRRHSQFLRVNQIQQDSDTTECDSEESNSGASSWKESESDHHLSPANIKRRKSVSRQRDMENYEVRQRPCLHCKAMRTREWLTRHFPPSASVTTPMKGEIQEENLTPGTNTKFSKF”, the “soluble on expression in E. coli” value is reported as “soluble”.
With “MYKLDLPTLMDAFHKVFHVSMLRKCITHQENVISEPPPDLLENMMIVGMLIPNLLGVSSEMVGR” the “soluble on expression in E. coli” value was “not soluble”.
With “MKDFPIRFVLTDEAITPSAGLALVGYLLHQTKLNKRVNALRPPTVRRDVHISHSDVIRSMIGLLATGKTDFDHIEAYRQDDIFSTSMGIQHVPSSPTLRQRLDQLACLPMTETILWEESMRLLIQRHATLSPCWAKGKTTWLPLDIDGSPFDNSDTKKEGVSRTYKGFDGFTPLFAYAGKEGYIVHAELRPGKQHVQDNMPSFLTTAIRRARQLTSSRLLVRMDAGNDAEANVHVCLKEDVDFVIKRNLRRESKALWFQIASQKGKRVDDGQTEGVQTYELCLPQTAAIDGNTYTYVQVTQVTERTMERNGQVMLVPNYEVESYWVRLKGYEHVRMSDVLALYHDHATCEQFHSELKSDLDLERLPSGKMKTNALVLVMGAFVYNLLRLIGQDLLSDPRHPLHHKVKRRRIKTIIQTVITMAGRLVRRSRQLWMKLTRRSGYSILLLNVYQKWKEAR” the “soluble on expression in E. coli” value was “not soluble”.
In the case of “MNIDTRIKFRHLVCFLEVARQGSLARASDALAISQPALSKSLKELETLLATTLFVRSKSGAALTDAGVAFMRFAGPSVQALRDGVSSLRSGEHETVTARLGVLSTAESLLVPEVVKRLHTRHPALIVSVMTGPSAYLLSQLRVGELDLVVGRMTDSPQIQGLTFEHLYHESMTLVVRNDHPLLAAPLKRESLEQFPLVLPLAGTTIRKFADSLFVQCGIQMPRQRLETLSLTLSRRYVQCSNAIWIAPLDAVLLELKGGTLVELDMGIREPGGSVGLCSNPALPLTRAAQWCVDELRTVGAAYREGQYA”, the “soluble on expression in E. coli” value is reported as “not soluble”.
In the case of “MSLRESVLKIYNWADYIDEDMLAEFPRWYKEQTGEDIRIVYQTFDINEIMLTKIERGHEDFDVVCPSEYIIERMLRKGLLLPIDTVFGKTPNYLHNESPYIREQLDKLSWSGHRASDYAIGYMWGTAGILFNTDHVPAEDARTWASLWNLKYENKILMKESYRDAYGTALIYANAEDLKKGKVTVEELMNNYSQASIDTVEKYLKAMKPLIAGWEADFGKEMMTKGKAWLNMTWSGDAVWAIEEAEGVGIHLDYEVPVEGSNVWYDGWVIPKYARNKKAASYFINYLCRPDVALRNMDACGYVSAVATPEILEAKIDTTLSYFADLSYFFGPAADSIQIDKVQYPDRTVVERCAMIRDSGDKTELVLEMWSRVKGDNEGHHHHHH”, the “soluble on expression in E. coli” value is reported as “soluble”.
In the case of “MNKFLGMYNTNTSNGGFVMSEKIYLKIDQQRYVKKPRVTIGDVMTVYCSDKDMIEKIGHITLAEFTLGKYDRKVFDALDVVGIIQKEYPDADIECLGECDFVVEYKKPEKEGTVH”, the “soluble on expression in E. coli” value is reported as “not soluble”.
For “GQSMTQQLRVLKSGVDIVVGTPGRVIDHLERKSLNLEHIAYFVLDEADEMLNMGFIDDIKEILKSTGPNKRMLFFSATMPKAILGIVKKHMQNYEHITIEKEELTETLTEQIYFEVKESDKFEALCRIIDIEDEFYGLVFCRTKTDTSQLAQKLSDRGYLADALHGDLSQQEREKILNKFRKQKINILAATDVAARGIDIMDLTHVINYALPQDPESYVHRIGRTGRAGKQGTAITFVTSTEFRRLTYIKKTSKSEMKKGHIPEIKDVIKAKRARVRTELEETIKTEEYGDCLEMSQKLLEEYPAEKILAALLKFTFKDKFDESMYTEISSGSSYVDRKGKSRLFIAMGKADGMTPDKLSYFIQEELGDGELKVRDAEIFPHFSFVTLPFAQAETLIEIFKNKRRGSKPFVELAQKSRGRSSKDSGETRSDNRGTSRGNSRNGESRGDSRGESRGTKSTNYSRSTRSTRSTKK”, the “soluble on expression in E. coli” value was “not soluble”.
In the case of “MNRPHSATGDRPLALVDEHAHAWSPKTARARFRKGLTGPTAGVAAGHTQANLISVPADWAYDMLLFCTRNPQPCPVLDVTDAGSWTTVLADGADLRTDLPRYRVWRDGELVDEPSDVREHWRDDLVTFLIGCSFTFEWALAAAGVPIRHVEQGRNVPMYVTSRACRPAGRLRGPMVVSMRPVPPAHLSAAIHESSLLPAVHGSPVHCGDPSALGIDDLDRPDFGEAVYREPDDIPVFWACGVTPQAAVMASRPPFALTHAPGQMFLTDARDEQYRVALEHHHHHH”, the “soluble on expression in E. coli” value is reported as “soluble”.
In the case of “MGSDKIHHHHHHVSCDYFNRGLCQSCRLMSKPVTEQLLEKEARLTHLLGGLPVDERLAPVSGPEFGFRNKAKMVVMGAAHAPVLGIPGPDGQPVDLSHCPLYPQDMQALLLELTSFVRRAGIPPYRVDKAKGELKFILLTRSAVRGEFMLRFVLRSKDAIPRIERELPKLLADFPAIKVVSVNLQPVHMARLEGEEEIFLTQATRLDEVFNGVPLFIRPKSFFQTNPEVASRLYATAAKWVDELSPKSLWDLFCGVGGFGLHCANESLPVTGIEIEAEAIDCAKTSAAAMGLDNLSFAALDSTDFAMGQQAQEVPEVIIVNPPRRGIGEELCERLSAFGPRAIIYSSCNPETLAKDLALISGYRIARVQLFDMFPHSDHFEVLCLLLKEAACASAD”, the “soluble on expression in E. coli” value is reported as “not soluble”.
In the case of “MGACRRIFKNYEPCELTICVTIICEPRSPPKFDHWKISKPGCPPKIISCSKATNNDVNREKRSRRKLVKKRTPSEVIEKLEEQEGSENCENVPFDKPLLHSDSATLICDEVATSRSPFEISTNEVENVDIQSEPRDRHVSITSMESVAGLGEADDQDDVTILKGLEEVHEIEVDKTVIEESIPNQPKGQRFDLLSNGDVTIPAMIMNDVDGPKKKLLVRRKKKSKTPDSPPQYRDYTETSIYMYIEMDKQNVGEFVWDQQCTRIDALVAPIVELDRMTTPEIPLEIELFD”, the “soluble on expression in E. coli” value is reported as “not soluble”.
For “MAHHHHHHMPPQQPVGIMDNEEEFPVEEPPPMDPLIKLLHLRHTYTSQYVDEAVREEVKAAMLKIAHEHNMAPYLRFASEMFCWTVDEEQLRAMDAINATKLEELDARIKDAQENLGDVEVRDGLLARCHHFARIGDMEECLKFNNECSGKTLAAGSKLDLCFQRILLGLAFSDNEVAANGICSAHRLMKEGDWERRNRLKVYEGLFYVYIRDFKKGSELLLDSISTFAASELMDFNEFILVTVVASLPVLSRSQLKKCILDSPEVHSANIKNVFHLVTAIYECRYKEVFPTLDAVCQQLRGIVYLSQHVNYFFREVRVLVFKQFLDSYSSVTLKSMSNAFGIPSPVLDSMLGTLISNERIACKMDRVSDSITTYRGDTTNLDYHRIVKNGDLLLNRIQKLSRLAEV”, the “soluble on expression in E. coli” value was “not soluble”.
With “VDRLHIIGDIFDRGPRADIIMDKLEEYHAVDIQWGNHDILWMGAASGSSVCMANVIRISARYANLSTIEDGYGINLLPLATFAMDFYGNDKCKNFEPKIESDKSYTVKEIELIGKMHKAIAIIQFKLEGEAIKRHPEFKMEHRMLLNKINFEDSTIELDGKKYKLNDTSFPTIDKNDPYKLIDEEREVVEKLRSSFVNSEKLNRHVRFLFSHGNLYLKFNSNLLYHGCIPLNEDGTFKEVLIGSHKYKGKALLDKLDVLARKSFFYEENSKNSKYENDMIWYLWSGPFSPLFGKEKMTTFERYFIDDKKTHYEKKDPYYHYRDDEDICINILREFGLDSEQAHIINGHVPVESKNGENPIKANGKLIVIDGGFSKAYQSKTGIAGYTLIYNS” the “soluble on expression in E. coli” value was “not soluble”.
For “TDLVAVWDVALSDGVHKIEFEHGTTSGKRVVYVDGKEEIRKEWMFKLVGKETFYVGAAKTKATINIDAISGFAYEYTLEINGKSLKKYMEDRSKTTNTWVLHMDGENFRIVLEKDAMDVWCNGKKLETAGEFVDDGTETHFSIGNHDCYIKAVSSGKRKEGIIHTLIVD”, the “soluble on expression in E. coli” value was “not soluble”.
In the case of “MSGRHEACITPARRARQCLNRGNTMRHLPLFSLMLFPASVYAADSDGANLN”, the “soluble on expression in E. coli” value is reported as “not soluble”.
In the case of “NTGFDINGMVSKIVSAERVPKQQRIDNERTNIDTSISAYGRLRESLDTMKNLMTQFRQEKAFAVRKVDTSNEQVVSATATTEAIAGNYSVDVLQLAQ”, the “soluble on expression in E. coli” value is reported as “not soluble”.
In the case of “MKILPLALFIIPFLAGCGANNTPPQTPIPGEKTSAKLRTLETGAAAIQSRPPVDAISTYLDGFHFYSGDKNGQMEAHHYVTVLNEDVMQAVIYDGNTKNARLMGVEYIISERLFKTLPPEEKKLWHSHQYEVKSGSLVAPGLPQVADKALMSKIVNTYGKTWHTWHTDRDKTLPMGIPALMMGFTGDGQLDPALLADRDRRLGIDTQAIKRERQDLPEHPVVKGANAWEQGEVIQLQRVQGSGEHGRGDTAHFGTSEQSRQLEHHHHHH”, the “soluble on expression in E. coli” value is reported as “soluble”.
In the case of “DPAVTYYRLEEVAKRNTAEETWMVIHGRVYDITRFLSEHPGGEEILLEQAGADATESFEDIGHSPDAREMLKQYYIGDVHPNDLKP”, the “soluble on expression in E. coli” value is reported as “soluble”.
For “METAKEMTRESLPIKCLEAVILGIYLTNGQPSIERFPISFKTYFSGNYFHHVVLGIYCNGRYGSLGMSRRAELMDKPLTFRTLSDLIFDFEDSYKKYLHTVKKVKIGLYVPHEPHSFQPIEWKQLVLNVSKMLRADIRKELEKYARDMRMKGLCSH”, the “soluble on expression in E. coli” value was “soluble”.
